Test results: US20140178390A1 (published 2014)
Each block holds one binder with its values, some of them ahead of it.

How the values were obtained:
Human CXCR7 [1] = biological target: T1, Human CXCR7 (human, UniProt P25106 1-362); assay: FACS, Hek293 hCXCR7 over Hek293 wt cells
T1 construct: see assay field; also called hCXCR7
Procedure: (§1) Clones representing distinct Nanobody B-cell lineages were tested as periplasmic extracts for their binding to cell surface exposed CXCR7. In this assay, 5-fold dilutions of periplasmic extract were incubated with Hek293 hCXCR7 and Hek293 wt cells. Binding of the Nanobodies was detected using mouse anti-myc (Serotec), followed by anti-mouse IgG-PE (Jackson Immununoresearch).

Human CXCR7 [2] = biological target: T1, Human CXCR7; assay: FACS, periplasmic extract on Hek293 hCXCR7 cells
Procedure: as §1

Human CXCR7 [3] = biological target: T1, Human CXCR7; assay: phage ELISA on immobilized hCXCR7 VLPs, OD 450 nm
Procedure: (§2) From all round 2 selection outputs clones were screened in phage ELISA on 2 units of immobilized CXCR7VLPs applying 10-fold dilutions of phage supernatant. […] The reaction was stopped with H₂SO₄ and the absorbance was measured at 450 nm using Sunrise TECAN spectrophotometer (TECAN). Nanobodies, showing a minimally 2-fold increased ELISA signal on hCXCR7VLPs over non-transfected control VLPs, were considered to be CXCR7 specific. CXCR7 specific Nanobodies were sequenced and redundant Nanobodies (identical AA sequence) were removed.

Human CXCR7 [4] = biological target: T1, Human CXCR7; assay: phage ELISA, hCXCR7 VLPs over non-transfected control VLPs
Procedure: as §2

Human CXCR7 [5] = biological target: T1, Human CXCR7; assay: FACS binding, purified protein on stable HEK-CXCR7 cells
Cynomolgus CXCR7 = biological target: T2, Cynomolgus CXCR7 (cynomolgus, UniProt P25106 1-362 (human entry)); assay: FACS on HEK293 cells expressing cynomolgus CXCR7, 800 nM Nanobody
T2 construct: On transfected HEK293 cells; also called cCXCR7; cyno CXCR7
T2 chain: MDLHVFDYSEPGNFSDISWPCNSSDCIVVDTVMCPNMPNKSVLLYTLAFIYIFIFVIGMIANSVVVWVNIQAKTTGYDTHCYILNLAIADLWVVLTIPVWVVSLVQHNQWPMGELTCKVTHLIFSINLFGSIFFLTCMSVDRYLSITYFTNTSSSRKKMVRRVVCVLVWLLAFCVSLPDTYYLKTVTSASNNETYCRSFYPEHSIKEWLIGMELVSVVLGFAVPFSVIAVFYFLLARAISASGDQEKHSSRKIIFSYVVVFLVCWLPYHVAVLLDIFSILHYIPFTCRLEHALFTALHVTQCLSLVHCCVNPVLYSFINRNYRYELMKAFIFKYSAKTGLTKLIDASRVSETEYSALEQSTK
Procedure: (§3) HEK293 cells transfected respectively with pcDNA3.1-hCXCR7 and pcDNA3.1-mCXCR7 were used to test cross-reactive binding of Nanobodies to mouse CXCR7 in FACS analysis. […] Nanobody binding was detected using mouse anti-myc (Serotec) and anti-mouse IgG-PE (Jackson Immunoresearch) and Mab binding by goat anti-mouse IgG-PE (Jackson Immunoresearch).
Cross-reactive binding to cynomolgus CXCR7 was assessed in the same way.

Human CXCR7 [6] = biological target: T1, Human CXCR7; assay: [125I]-CXCL12 displacement on NIH3T3-hCXCR7 cells, relative to cold SDF-1
Procedure: (§4) After incubation, cells were washed twice, lysed with RIPA buffer and the ¹²⁵I signal was measured.

Human CXCR7 [7] = biological target: T1, Human CXCR7; assay: [125I]-CXCL12 displacement on NIH3T3-hCXCR7 cells
Procedure: as §4

Mouse CXCR7 [8] = biological target: T3, Mouse CXCR7 (mouse, UniProt P56485 1-362); assay: FACS on HEK293 cells transfected with pcDNA3.1-mCXCR7
T3 construct: On transfected HEK293 cells; also called mCXCR7
Text: as §3

Mouse CXCR7 [9] = biological target: T3, Mouse CXCR7; assay: FACS on HEK293 cells transfected with pcDNA3.1-mCXCR7, 800 nM Nanobody
Text: as §3

Human CXCR7 [10] = biological target: T1, Human CXCR7; assay: competition FACS with 4 nM biotinylated SDF-1 on HEK-hCXCR7 cells

T1 sequence (P25106 whole entry): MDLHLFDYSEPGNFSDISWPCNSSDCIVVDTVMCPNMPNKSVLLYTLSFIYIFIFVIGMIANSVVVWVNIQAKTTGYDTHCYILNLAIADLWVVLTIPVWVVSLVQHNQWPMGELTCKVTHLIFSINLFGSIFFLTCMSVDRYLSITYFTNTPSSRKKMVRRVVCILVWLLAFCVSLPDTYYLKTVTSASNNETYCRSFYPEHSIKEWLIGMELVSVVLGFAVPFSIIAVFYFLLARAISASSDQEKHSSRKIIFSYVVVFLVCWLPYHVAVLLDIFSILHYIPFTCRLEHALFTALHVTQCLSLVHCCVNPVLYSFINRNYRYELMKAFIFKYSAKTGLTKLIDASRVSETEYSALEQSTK
T3 sequence (P56485 whole entry): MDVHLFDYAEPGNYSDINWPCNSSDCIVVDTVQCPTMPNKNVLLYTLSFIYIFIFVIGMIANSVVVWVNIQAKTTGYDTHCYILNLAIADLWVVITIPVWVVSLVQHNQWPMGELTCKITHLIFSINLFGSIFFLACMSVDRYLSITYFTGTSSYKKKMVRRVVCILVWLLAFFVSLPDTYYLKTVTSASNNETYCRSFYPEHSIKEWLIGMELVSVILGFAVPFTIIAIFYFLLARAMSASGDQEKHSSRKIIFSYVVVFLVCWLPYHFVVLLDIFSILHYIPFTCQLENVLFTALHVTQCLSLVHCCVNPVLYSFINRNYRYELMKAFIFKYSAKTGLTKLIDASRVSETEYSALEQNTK

B1: Nanobody 07B11 with Tag-1 (VHH)
VHH: EVQLVESGGNLVQAGGSLGLSCAASVSISSIHIMGWYRQAPGKQRDLVATITSGGSTAYADSVKGRFTVSKDNAKNTVYLQMDSLKPEDTSVYYCAAEVRNGVFGKWNHYWGQGTQVTVSS
notes: periplasmic extract in the screening FACS
Fold Hek CXCR7/CXCR4 (Human CXCR7 [1]): 110 fold
Hek-CXCR7 [MCF] (Human CXCR7 [2]): 42900 MCF
CXCR7-LP 2U/well [OD] (Human CXCR7 [3]): 0.041 OD
Fold CXCR7-LP/Null-LP (Human CXCR7 [4]): 4.1 fold

B2: Nanobody 07B11 with Tag-2 (VHH)
VHH: B1 VHH
notes: Purified from E. coli periplasm
Plateau [mcf] (Human CXCR7 [5]): 24900 mcf
binding result (Cynomolgus CXCR7): binds
Average SDF-1 displacement (%) (Human CXCR7 [6]): 75%
Ki (Human CXCR7 [7]): 96.1 nM
binding result (Mouse CXCR7 [8]): no binding (tested: 800 nM)

B5: Mab 11G8 (R&D Systems) (antibody, V domains shown)
VH: EVKLVESGGDLVQPGGSLKLSCATSGFTFSDYYMFWVRQTPEKRLEWVAYITNGGDRSYYSDTVTGRFIISRDNAKNTLYLQMSRLKSEDTAMYYCARQGNWAAWFVYWGQGTLVTVSA
VL: DVLMTQTPLSLPVSLGDQASISCRSSHYIVHSDGNTYLEWYLQKPGQSPKLLIYKVSNRFSGVPDRFSGSGSGTDFTLKISRVEAEDLGIYYCFQGSHVPLTFGAGTKLELKR
Average SDF-1 displacement (%) (Human CXCR7 [6]): 24%
Ki (Human CXCR7 [7]): 4.4 nM

B6: Nanobody 07C03 with Tag-1 (VHH)
VHH: EVQLVESGGGLVQAGESLTLSCAASGRTLSAYIMGWFRQAPGKEREFVAGIWSGGYTHLADSAKGRFSISRDNAKNTVYLQMNGLKPEDTAVYYCAAGLRGRQYSNWGQGTQVTVSS
notes: as for B1
Fold Hek CXCR7/CXCR4 (Human CXCR7 [1]): 73.2 fold
Hek-CXCR7 [MCF] (Human CXCR7 [2]): 23400 MCF
CXCR7-LP 2U/well [OD] (Human CXCR7 [3]): 0.053 OD
Fold CXCR7-LP/Null-LP (Human CXCR7 [4]): 4.4 fold

B7: Nanobody 07C03 with Tag-2 (VHH)
VHH: B6 VHH
notes: as for B2
Plateau [mcf] (Human CXCR7 [5]): 33100 mcf
binding result (Cynomolgus CXCR7): binds
Average SDF-1 displacement (%) (Human CXCR7 [6]): 78%
binding result (Mouse CXCR7 [9]): binds
Ki (Human CXCR7 [7]): 12.2 nM
competition relative to unlabelled SDF-1 (%) (Human CXCR7 [10]): > 95%

B10: Nanobody 01C10 with Tag-1 (VHH)
VHH: EVQLVESGGGLVQTGASLRLSCAASGRTFSNYAMGWFRQAPGKERERVAAITPRAFTTYYADSVKGRFTISRDNAKNTAYLQMVSLKPEDTAVYYCAAQLVGSGSNLGRQESYAYWGQGTQVTVSS
CXCR7-LP 2U/well [OD] (Human CXCR7 [3]): 0.145 OD
Fold CXCR7-LP/Null-LP (Human CXCR7 [4]): 4.2 fold

Next, values leading:

Fold Hek CXCR7/CXCR4 (Human CXCR7 [1]): 60.1 fold
Hek-CXCR7 [MCF] (Human CXCR7 [2]): 18600 MCF
CXCR7-LP 2U/well [OD] (Human CXCR7 [3]): 0.019 OD
Fold CXCR7-LP/Null-LP (Human CXCR7 [4]): 2.4 fold
B3: Nanobody 08A05 with Tag-1 (VHH)
VHH: EVQLVESGGGLVQAGDSLRLSCAASGLTFSNYDMGWFRQAPGKEREFVGASWWSGGAPYYSDSVKGRFTISRDNAKNTVYLQANSLRPEDTAVYYCAAKRLRSFASGGSYDYWGQGTQVTVSS
notes: as for B1

Plateau [mcf] (Human CXCR7 [5]): 28500 mcf
binding result (Cynomolgus CXCR7): binds
Average SDF-1 displacement (%) (Human CXCR7 [6]): 77%
binding result (Mouse CXCR7 [9]): binds
Ki (Human CXCR7 [7]): 13.6 nM
B4: Nanobody 08A05 with Tag-2 (VHH)
VHH: B3 VHH
notes: as for B2

Fold Hek CXCR7/CXCR4 (Human CXCR7 [1]): 85.1 fold
Hek-CXCR7 [MCF] (Human CXCR7 [2]): 27400 MCF
CXCR7-LP 2U/well [OD] (Human CXCR7 [3]): 0.104 OD
Fold CXCR7-LP/Null-LP (Human CXCR7 [4]): 17.3 fold
B8: Nanobody 08A10 with Tag-1 (VHH)
VHH: EVQLVESGGGLVQAGGSLRLSCAASGSIFSIAAMGWYRQATGKQRELVATITDGGTTTYADSVKGRVTISRDRSANTVYLAMNNLKPDDTAVYYCYAYLRYTSRVPGDNYWGQGTQVTVSS
notes: as for B1

Plateau [mcf] (Human CXCR7 [5]): 34900 mcf
binding result (Cynomolgus CXCR7): binds
Average SDF-1 displacement (%) (Human CXCR7 [6]): 75%
Ki (Human CXCR7 [7]): 12.1 nM
binding result (Mouse CXCR7 [8]): no binding (tested: 800 nM)
B9: Nanobody 08A10 with Tag-2 (VHH)
VHH: B8 VHH
notes: as for B2

binding result (Cynomolgus CXCR7): binds
Average SDF-1 displacement (%) (Human CXCR7 [6]): 31%
binding result (Mouse CXCR7 [9]): binds
Ki (Human CXCR7 [7]): 20.7 nM
B11: Nanobody 01C10 with Tag-2 (VHH)
VHH: B10 VHH
notes: as for B2
